Test results from patent publication US20220002384A1 (published 2022).

T1: AXL (R&D Systems cat#154-AL) (UniProt P30530 26-440)
T1 chain: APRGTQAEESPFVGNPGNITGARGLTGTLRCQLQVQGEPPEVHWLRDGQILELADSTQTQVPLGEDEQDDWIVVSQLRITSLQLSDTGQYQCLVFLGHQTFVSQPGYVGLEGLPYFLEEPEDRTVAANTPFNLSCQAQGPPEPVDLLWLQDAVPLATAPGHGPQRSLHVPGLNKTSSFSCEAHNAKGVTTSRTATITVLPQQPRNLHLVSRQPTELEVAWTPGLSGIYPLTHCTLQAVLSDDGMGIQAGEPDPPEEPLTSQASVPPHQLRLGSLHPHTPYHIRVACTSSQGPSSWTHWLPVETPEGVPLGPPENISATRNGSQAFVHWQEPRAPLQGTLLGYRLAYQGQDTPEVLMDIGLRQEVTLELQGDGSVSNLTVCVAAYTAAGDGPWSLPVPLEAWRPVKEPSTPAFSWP

B1: AXL #44 (designed binder)
chain: NVSPPRRARVTDATETTITIRWEGRGVIGFQVDAVPANGQTPIQRTIKPDVRSYTITGLQPGTDYKIYLYTLPNIGTGHFSSSPVVIDAST
B2: AXL #56 (designed binder)
chain: NVSPPRRARVTDATETTITISWRVSPSTVVGLQVDAVPANGQTPIQRTIKPDVRSYTITGLQPGTDYKIYLYTLNVIGGSAHASSPVVIDAST

Target: T1, AXL (R&D Systems cat#154-AL)
Assay: BLI

Binder | Kd [nM]
B1 | 4
B2 | 12
